Laboratory results as given in the supplement of paper PMC9170038.

Test system: K4 kissing-loop RNA reporter
Assay: apparent KD of K4 kissing-loop reporter; higher = weaker reporter binding
Details: Eterna round: R107; input ligand: FMN 200 uM
Procedure: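 RNA-MaP round R107: designed RNA switches with theophylline, tryptophan, arginine or FMN aptamers are transcribed on-chip within common flanks. They are titrated with a labelled K4 kissing-loop RNA reporter in RNA-MaP buffer (100 mM Tris pH 7.5, 80 mM KCl, 4 mM MgCl2), without ligand or with the indicated ligand. Median apparent KD per design.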
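Also: bound reporter read as fluorescence of individual clusters on recovered sequencing chips by microscopy, with normalized cluster intensities fitted with a binding model.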

Going from “CUAGAAGUGAUGUUUCAUAGUAAAUCUGAUACCAGCAUUAAACCCUGCCCUUGGCAGCAGAAUGGGCUGAUAGACUCCUGCAGCU [theeternabot_sameState_KL_Theo_A_36]” to “AGUGAUAUAUGAGGAUAUGGGUUGGUUAAUGAGUUAGUUUUAGUGUUGUUUGGUUAGUGAUGUUAUUUAGAAGGCGUGAGUGAUG [sffdsmullin]”, the “apparent KD of K4 kissing-loop reporter” value falls from 220 nM to 99.6 nM (2.2-fold).

Going from “GGAUAACAGGCAGGAUAUGCUUAGUAGUAAGGCCAUAUAUACGUAUAGAGUGAUGUUUUGUACAAGGCAGAAGGGCUAAAUCCAU [FMN B Excl V2 (+4G)]” to “AAACAUUGGUCUGAUACCAGCUUGAUCGGUAAACGAUCUACUGGAGUGAUGUUCCUAAAUAGCCCUUGGCAGCAGACCGAUGAAA [MAT - Same State Theophlline B - Mod of Eli - D6]”, the “apparent KD of K4 kissing-loop reporter” value falls from 536 nM to 187 nM (2.9-fold).

First: CUGUUUUAGUCGGCCGCCACUGCAAGUGAUGUUUGGAGUAUUAUGCCGUUUCUGUCCAUUGAACCCAGGACCGGGACCGGAUCGU [theeternabot_exclusion_KL_Trp_B_8]
Second: UGAUACCAGACGGCCGCCACUCCCGUAAGUCAAAGACUUACCAAGAGAAUCGUCCAGUGAUGUUGGAGGACCGGGUCUGGUAUCU [FiskerMod 8 - Jieux - Exclusion - Tryptophan B]
The “apparent KD of K4 kissing-loop reporter” value of the first is 4.3-fold lower: 212 nM for the first, 922 nM for the second.

Going from “AACAGCAAUGCGGCCGCCACUUCGAGGUCAGUGAUGUUGACGGGAUUAAAUAAAGAUCCCAAGAGGAGGACCGGGCAGUGCUGUU [whbob_SS_Tryp_B_t26]” to “CACGAUGAAUUCUCUAGGAGUGAUGUUUUUCGAGGACCGGUACGGCCGCCACUCGGACGACGAGCGUGGUAGCGGCGUGAAGACU [zamullin]”, the “apparent KD of K4 kissing-loop reporter” value rises from 225 nM to 365 nM (1.6-fold).

“GGUUCCUCAGUGAUGUUGAGGUGACCUCGGCAGGAUAUAGGCAUUACUAGAAGGGCCAAAAGAACCCUGUCCAGCGACACAGGGA [Zalatiat]” and “GAGAUAGCGACGGCCGCCACUAGUGAUGUUAGUGCGGGUAGAUAGAUACUUGAACAGAAAUGACGUAGGACCGGGUCAGAUAGAG [#02 K4 Tryptophan B Exclusion]” are within 1.5-fold of each other in “apparent KD of K4 kissing-loop reporter” value: 159 nM for the first, 162 nM for the second.

Compared with “CACCGGACGAAAGAUACCAGUUACUAUAUUAGGGUGCCUUGGCUAGUGAUGUUAGAGAGUAACCCUUGGCAGCUUUGGUACUUAU [theeternabot_exclusion_KL_Theo_B_21]”, “CGGUAGUCUAUAGGGUCCAGUGAUGUUGGACAGGAUAUGCUACGCCGCAGAAGGGUCCAACUGGUUGUGAAGUUGGCUACUAGGC [Somaaxe]” is 2.6-fold lower in “apparent KD of K4 kissing-loop reporter” value: 380 nM for the first, 144 nM for the second.

Compared with “AGGUUUUGAUUAGGAUAUGCACUGAGGAGGAGAAUAUAGUGAUGUUAUAUAAGAGGAAGGAGAAGAGUAGAAGGGAUUGAGGUUU [SSFMNB.Q]”, “AAUAACUAGUAUAUUUGUAAUAAAACAGAUACCAGUGAUAAUAAACACCCUUGGCAGCUGAUCGAGUGAUGUUCGUUUAUUUUAA [JR_SSTheophyA_Sub004]” is 1.5-fold lower in “apparent KD of K4 kissing-loop reporter” value: 156 nM for the first, 102 nM for the second.

Going from “GCUACUGCCUUAGGAUAUAGUUGAGUGAUGUUCAAGCAUAUGCAUGGGAAAACCAUGCAUAUGUCCCUAGAAGGGAGGCAGUAGC” to “GCGCGGCUCAGUGAUGUUGAGCCUCGGAAACGAGGACCGGUACGGCCGCCACUCGUCCGCGCAGCUGAGGCAAAAGCCUCGGCAA [Omei KL Tryp A SS B v1]”, the “apparent KD of K4 kissing-loop reporter” value falls from 800 nM to 284 nM (2.8-fold).

“GAUACGUCAGUGAUGUUGAUGUAUUACACAGAGGAUAUCGUAAUGACGAGAAGGCUGAGCCAUCUAGAGAUACGUAAGACGUAUC [FMN A SS t5]” and “UUCAGUGACAUACGAGUGAUGUUCGUAAUACGAGGACCGGUACGGCCGCCACUCGCACGUCGGCAGUUUGUUCAUGCAUCAGACU” are within 1.5-fold of each other in “apparent KD of K4 kissing-loop reporter” value: 154 nM for the first, 226 nM for the second.

First: UUAUACAACUGAAGGAGCGCCAGUGAUGUUGGCGUGACGACUGCUUCCUUCGCCGAGUCCUGGCAGGUAGGUCGCAGUUGCUGAA [Oratgere]
Second: AAGGUAUCACCAACUUGCAACAAAGGUGAUACCAGCAUCGAAAGAUGCCCUUGGCAGCACCAACUUGCAGUGAUGUUGCAAGUAA [(T)'-(H)'-(T1)-(T2)-(H1)-(H2)_Design10]
The “apparent KD of K4 kissing-loop reporter” value of the first is 2.1-fold lower: 82.6 nM for the first, 170 nM for the second.

Going from “AAGGCAGUUCGAGGAUAUCACAUACACUCCUUGAAUCAAGGAGUGAUGUUCCUUGAAGUGUAUGCAUGAGAAGGCGAAUUGCCUU [FMN B SS t5]” to “GGGUUUGCCGGAAGGAGCGCACUAUGGAGUGAUGUUCCAUGACCGCACAGCUUGCGGUCAGUGCAGGUAGGUCGCCGGUAACGUU [Enatbeve]”, the “apparent KD of K4 kissing-loop reporter” value rises from 113 nM to 237 nM (2.1-fold).

Going from “UAUACUAGACAAGAGAGAAUUCUCUCAAGAGAGGAUAUCCGAAUUCGGAGAAGGCUCUCUCAGUGAUGUUGGGUAUAGUCUAGAA [AK7 SS FMN A]” to “AAACAUUGGUCUGAUACCAGUUAGACCGAUAAGGUCAAAACUGGAGUGAUGUUCCCAAAUAACCCUUGGCAGCAGACCGAUGAAA [MAT - Same State Theophlline B - Mod of Eli - D10]”, the “apparent KD of K4 kissing-loop reporter” value falls from 260 nM to 147 nM (1.8-fold).

“UGGACCAAGGAGUGAUGUUCCAUAUGUGAUACCAGCCACGAAAGUGGCCCUUGGCAGCACUGCCAGGACGAAAACGUCCGGUCCU [#SwitchBubble 13 #StaticStem #K4Early]” and “GUCCCAGUGAUGUUGGUAGGCGAGCGGGAUACCAGCGAAGACUCACGCCCUUGGCAGCCCACAUAUCCCACGUAGGGAUUAGCUC [Same State - Theophylline A (Freestyle 20)]” are within 1.5-fold of each other in “apparent KD of K4 kissing-loop reporter” value: 390 nM for the first, 336 nM for the second.

First: UGACUGGACUGAAGGAGCGAGCGAGACAAAGUCUCGGAAAUUCAGUGAUGUUGAUAUAUAACUCAGGUAGGUCGCAGUCUAGUCU [ArgBS 6 #SwitchBubble #StaticStem]
Second: UAGCGGUGGAGGCCACCGCUAUUCUGAGAAGGAGCGCAGAUGACUGCAGGUAGGUCGCUUAGAGCUUGCAGUGAUGUUGCAAGUU [Araatlaqu]
The “apparent KD of K4 kissing-loop reporter” value of the first is 1.8-fold higher: 350 nM for the first, 191 nM for the second.

Going from “GCAUGACGGUAAGGAUAUAGAUAAUCCUUAUAUACGUCGAGUGAUGUUCGAUGUGCCAAGGCACAUCUAGAAGGUACUGUUAGGU [Same State FMN B GF 18]” to “ACGUAUAUCAGAGGAUAUCGUAUUAAUAUUUUAUCUAUCUAUAUAUGCAGUGAUGUUGCAAUAAUUCGAGAAGGCUGAUUUACGA [JR_ExcFMNB_Sub010]”, the “apparent KD of K4 kissing-loop reporter” value falls from 772 nM to 112 nM (6.9-fold).

First: UCUGCAAAGUCGGCCGCCACUCCGGGCCCUAUAAAUGGGCGCAGUGAUGUUGCGGCUAGGCCUCUGAGGACCGGGACUUCGUAGA [Somale]
Second: UGACUACAUCCUAGUGAUGUUUAGGAUAUGUAGGAUAUGCUGAUAAGCAGAAGGACAGAAGGAAGUGAUGUUCUUAAAGUAGUCU [FmnAX 29 #DoubleAptamer #Double K4 #SwitchBubble #StaticStem]
The “apparent KD of K4 kissing-loop reporter” value of the first is 10-fold lower: 62.8 nM for the first, 644 nM for the second.

Same assay, conditions: Eterna round: R107; input ligand: arginine 13.2 mM

First: CUAGAAGUGAUGUUUCAUAGUAAAUCUGAUACCAGCAUUAAACCCUGCCCUUGGCAGCAGAAUGGGCUGAUAGACUCCUGCAGCU [theeternabot_sameState_KL_Theo_A_36]
Second: AGUGAUAUAUGAGGAUAUGGGUUGGUUAAUGAGUUAGUUUUAGUGUUGUUUGGUUAGUGAUGUUAUUUAGAAGGCGUGAGUGAUG [sffdsmullin]
The “apparent KD of K4 kissing-loop reporter” value of the first is 2.3-fold higher: 199 nM for the first, 88.3 nM for the second.

“GGAUAACAGGCAGGAUAUGCUUAGUAGUAAGGCCAUAUAUACGUAUAGAGUGAUGUUUUGUACAAGGCAGAAGGGCUAAAUCCAU [FMN B Excl V2 (+4G)]” and “AAACAUUGGUCUGAUACCAGCUUGAUCGGUAAACGAUCUACUGGAGUGAUGUUCCUAAAUAGCCCUUGGCAGCAGACCGAUGAAA [MAT - Same State Theophlline B - Mod of Eli - D6]” are within 1.5-fold of each other in “apparent KD of K4 kissing-loop reporter” value: 240 nM for the first, 172 nM for the second.

Going from “CUGUUUUAGUCGGCCGCCACUGCAAGUGAUGUUUGGAGUAUUAUGCCGUUUCUGUCCAUUGAACCCAGGACCGGGACCGGAUCGU [theeternabot_exclusion_KL_Trp_B_8]” to “UGAUACCAGACGGCCGCCACUCCCGUAAGUCAAAGACUUACCAAGAGAAUCGUCCAGUGAUGUUGGAGGACCGGGUCUGGUAUCU [FiskerMod 8 - Jieux - Exclusion - Tryptophan B]”, the “apparent KD of K4 kissing-loop reporter” value rises from 167 nM to 845 nM (5.1-fold).

“AACAGCAAUGCGGCCGCCACUUCGAGGUCAGUGAUGUUGACGGGAUUAAAUAAAGAUCCCAAGAGGAGGACCGGGCAGUGCUGUU [whbob_SS_Tryp_B_t26]” and “CACGAUGAAUUCUCUAGGAGUGAUGUUUUUCGAGGACCGGUACGGCCGCCACUCGGACGACGAGCGUGGUAGCGGCGUGAAGACU [zamullin]” are within 1.5-fold of each other in “apparent KD of K4 kissing-loop reporter” value: 195 nM for the first, 276 nM for the second.
